# Source: patent US20220204599A1 (published 2022)
# Residue numbers refer to the chain shown, from its start. Like-named read-outs stand apart in the source and are kept apart here.
# B1: CTHRC1-His (other)
# chain: GAVGASEIPKGKQKAQLRQREVVDLYNGMCLQGPAGVPGRDGSPGANGIPGTPGIPGRDGFKGEKGECLRESFEESWTPNYKQCSWSSLNYGIDLGKIAECTFTKMRSNSALRVLFSGSLRLKCRNACCQRWYFTFNGAECSGPLPIEAIIYLDQGSPEMNSTINIHRTSSVEGLCEGIGAGLVDVAIWVGTCSDYPKGDASTGWNSVSRIIIEELPKLAASANSAVDHHHHHHHH
# B2: hCMAb45 humanized anti-CTHRC1 antibody (antibody, V domains shown)
# VH: QVQLVESGAEVKKPGASVKVSCKASGYSFTDYIILWVRQAPGQGLEWMGAINPYYGSTVYGQKFQGRLTITADGSMSTAYMELSSLRSEDTAVYYCARSGYGYDESAMDYWGQGTLVTVSS
# VL: DIVMTQTPLSLPVTPGEPASISCRSSKSLLNSDGFTYLDWYLQKPGQSPQLLIYLVSNRFSGVPDRFSGSGSGTDFTLKISRVEAEDVGVYYCFQSNYLPLTFGQGTKLEIK
# B3: cCMAb45 anti-CTHRC1 chimeric antibody (antibody, V domains shown)
# VH: EVQLQQSGPELVKPGASVKISCKASGYSFTDYIMLWVKQSHGKSLEWIGNINPYYGSTSYNLKFKGKATLTVDKSSSTAYMQLNSLTSEDSAVYYCARSGYGYDESAMDYWGQGTSVTVSS
# VL: B2 VL with I2V, V3L, T14N, P15I, E17D, P18Q, R24K, S26T, V88L, Q105S
# B4: hCMAb96 humanized anti-CTHRC1 antibody (antibody, V domains shown)
# VH: QVQLVQSGAEVKKPGASVKVSCKASGYTFTSYWMHWVRQAPGQGLEWIGYIYPSSGTTNYNQKFQGRVTITADESTSTAYMELSPLRSEDTAVYYCTTESYWGQGTTVTVSS
# VL: DIQMTQSPSSLSASLGDTITITCHASQNINVWLAWYQQKPGKAPKLLIYKASNLHSGVPSRFSGSGSGTDFTLTISSLQPEDIATYYCQQGQSYPLTFGQGTKVEIK
# B5: cCMAb96 anti-CTHRC1 chimeric antibody (antibody, V domains shown)
# VH: QVQLQQPGSELVRPGASVKLSCKASGYTFTSYWMHWVKQRPGQGLEWIGNIYPSSGTTNYDEKFKNKATLTVDTSSTTAYMHLSSLTSEDSAVYYCTTESYWGQGTTLTVSS
# VL: B4 VL with Q3V, A34S, K42N, A43I, S56T, D70G, Q100G, V104L
# Assays:
# Experiment in all cases: ELISA
# [1] = biological target: SA2760
# [2] = biological target: SA2773
# [3] = biological target: SA2767
# [4] = biological target: SA2758
# [5] = biological target: SA2764
# [6] = biological target: SA2771
# [7] = biological target: SA2763
# [8] = biological target: SA2772
# [9] = biological target: SA2766
# [10] = biological target: B1
# [11] = biological target: B1; remark: listed apart in the source
binder,measurement,setting,value
B1,Kd,[1],0.118 nM
same,Kd,[2],0.3 nM
same,Kd,[3],0.48 nM
same,Kd,[4],0.082 nM
same,Kd,[5],0.175 nM
same,Kd,[6],0.221 nM
same,Kd,[7],0.25 nM
same,Kd,[8],0.406 nM
same,Kd,[9],0.202 nM
B2,Kd,[10],0.089 nM
same,Kd,[11],0.128 nM
B3,Kd,[10],0.093 nM
same,Kd,[11],0.257 nM
B4,Kd,[10],0.131 nM
same,Kd,[11],0.196 nM
B5,Kd,[10],0.128 nM
same,Kd,[11],0.187 nM
